Reference: doi:10.1101/2024.08.19.608659

Biological target: hATP5A1 pre-protein (F1-ATP synthase subunit alpha precursor) (Homo sapiens, UniProt P25705)
Assay: EMSA

Q: Does CUUUCCGCUCGGCUGUUUUCCUGCGCAGGAGCCGCA (ssRNA) [RPL13 RNA ligand] bind?
A: binds
